Results from the supplement of paper PMC11780869.

Test system: Bacillus subtilis
Assay: cleaved RNA product abundance (RNA/gDNA barcode ratio) relative to median wild-type variant (ratio to wild type); higher = more accumulation of the downstream cleavage product
Summary of the method: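 Oligos with a 9% error rate were used to build barcoded, mutagenized RNase Y cleavage-site windows within truncated aprE or tetM reporter mRNAs, which were integrated into the B. subtilis chromosome. Cultures were grown in LB at 37°C between OD600 0.0003 and 0.3. Cleaved RNA was gel-selected, reverse transcribed and barcode-sequenced, as were genomic DNA barcodes, and UMIs were collapsed. Cleaved product abundance is the scaled RNA:gDNA barcode ratio, with the median construct carrying the unmutated site as reference.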

[1] = experiment (reporter, strain, medium): exp 8a: truncated aprE reporter, strain BJT201 with 2% xylose (RNase J1 expressed), cleavage site: glnRA (positions -5 to +31 mutated)
[2] = experiment (reporter, strain, medium): exp 4a: truncated aprE reporter, strain BJT201 with 2% xylose (RNase J1 expressed), cleavage site: cggR-gapA (positions -7 to +36 mutated)
[3] = experiment (reporter, strain, medium): exp 2b: truncated aprE reporter, strain BJT200, cleavage site: cggR-gapA (positions -7 to +36 mutated)

Row | Sequence | cleaved RNA product abundance [1] | cleaved RNA product abundance [2] | further results
1 | CGACATGTCCCGCTTCTTTCATTAATCGGTTAACAAATGTTGTGCTATAGACATTTACCTTTTAAGAGGAGGAAT | 0.209 |  | 
2 | ACAGACGAAGGAGCCGCAAAGAAGTTATTAAGGGATAAATAATCCCTCGATATAAATATCTCTCACTTATTTAAA |  | 0.433 | 
3 | CGACATGTCCCGCTTCTTTCATTAATCCATTAGCAACTGTTTTGCTATATACATCTACCTTTTAAGAGGAGGAAT | 0.942 |  | 
4 | CGACATGTCCCGCTTCTTTCATTAATCCGTTAGTAACTGTCTTGCTATATACATTTACCTTTTAAGAGGAGGAAT | 0.231 |  | 
5 | CGACATGTCCCGCTTCTTTCATTAATCCGTTACCAACTGTTTTGCTATATACATTTACCGTTTAAGAGGAGGAAT | 0.173 |  | 
6 | CGACATGTCCCGCTTCTTTCATTAATCCGTTATCAACTGTTTTGCTATATACAATTACCTTTTAAGAGGAGGAAT | 0.276 |  | 
7 | ACAGACGAAGGAGCCGCAAAGAAGTTATTAAGGGCTGAATAATCCCCCAATATAAATATCTCTCACTTATTTAAA |  | 0.157 | 
8 | ACAGACGAAGGAGCCGCAAAGAAGTTATTAAGGGCTGAATAATCCCTCAATATACATATCTCTCACTTATTTAAA |  | 0.433 | 
9 | ACAGACGAAGGAGCCGCAAAGAAGTTATAAAGGGATGAATAATCCCTCAATATAAATTTCTCTCACTTATTTAAA |  | 0.387 | 
10 | CGACATGTCCCGCTTCTTTCATTATTCTGTTAGCAACTGTTTAGCTATATACATTTACCTTTTAAGAGGAGGAAT | 0.759 |  | 
11 | ACAGACGAAGGAGCCGCATAGAAGTTATTAACGGATGAATAATCCCTCAATATAAATATCTCTCACTTATTTAAA |  | 0.193 | 
12 | ACAGACGAAGGAGCCGCAAAGAAGTTATTAAGGGATGAAAAATCCCTCAATATAATTATCTCTCACTTATTTAAA |  | 0.171 | 
13 | CGACATGTCCCGCTTCTTTCATTAATCCGTTCACAACTGTTTTGCTATATACATTTACCTTTTAAGAGGAGGAAT | 0.224 |  | 
14 | CGACATGTCCCGCTTCTTTCATTATTCCGTTAGCAACTGTTTTGCTATATACATTTTCCTTTTAAGAGGAGGAAT | 0.792 |  | 
15 | ACAGACGAAGGAGCCGCAAAGAAGTTATTAAGGGAAGAATAATCCCTCACTATAAATATCTCTCACTTATTTAAA |  |  | cleaved RNA product abundance [3]: 0.187
16 | CGACATGTCCCGCTTCTTTCATTAATCCGTTACCTACTGTTTTGCTATATACATTTACCTTTTAAGAGGAGGAAT | 0.443 |  | 
17 | ACAGACGAAGGAGCCGCAAAGAAGTTATTAAGGAATGTATAATCCCTCAATATAAATATCTCTCACTTATTTAAA |  | 0.169 | cleaved RNA product abundance [3]: 0.104
18 | CGACATGTCCCGCTTCTTTCATTACTCCGTTAGCAACTGTTTTGCTATATACATTTACATTTTAAGAGGAGGAAT | 1.39 |  | 
19 | ACAGACGAAGGAGCCGCAAAAAAGTTATTAAGGGATGAATAATCCCTCAATCTAAATATCTCTCACTTATTTAAA |  |  | cleaved RNA product abundance [3]: 0.137

Row | Sequence | cleaved RNA product abundance [1] | cleaved RNA product abundance [2] | further results
20 | ACAGACGAAGGAGCCGCAAAGAATTTATAAAGGGATGAATAATCCCTCAATATAAATATCTCTCACTTATTTAAA |  | 0.481 | cleaved RNA product abundance [3]: 0.355; cleaved RNA product abundance (experiment (reporter, strain, medium): exp 6: tetM reporter, strain 168, cleavage site: cggR-gapA (positions -7 to +36 mutated)): 0.219
21 | ACAGACGAAGGAGCCGCAAAGAAGTTATTAAGGGATGAATAACCACTCAATATAAATATCTCTCACTTATTTAAA |  | 0.17 | cleaved RNA product abundance [3]: 0.0866
22 | ACAGACGAAGGAGCCGCAATGAAGTTATTATGGGATGAATAATCCCTCAATATAAATATCTCTCACTTATTTAAA |  | 0.464 | 
23 | CGACATGTCCCGCTTCTTTCATTAATCCGTTAGCAACTGATTTGCTATATAGATTTACCTTTTAAGAGGAGGAAT | 0.979 |  | 
24 | ACAGACGAAGGAGCCGCAAAGAAGATATTAAGGGTTGAATAATCCCTCAATATAAATATCTCTCACTTATTTAAA |  |  | cleaved RNA product abundance [3]: 0.43
25 | ACAGACGAAGGAGCCGCAAAAAAGTTATTATGGGATGAATAATCCCTCAATATAAATATCTCTCACTTATTTAAA |  | 0.334 | cleaved RNA product abundance [3]: 0.323
26 | CGACATGTCCCGCTTCTTTCATTAATCCGTTAGCAAATGTTTTGCAATATACATTTACCTTTTAAGAGGAGGAAT | 0.304 |  | 
27 | CGACATGTCCCGCTTCTTTCATTAATCCATTAGCAACTGTTTTGCTATATATATTTACCTTTTAAGAGGAGGAAT | 0.973 |  | 
28 | ACAGACGAAGGAGCCGCAAAGAAGTTAGTAAGGGATTAATAATCCCTCAATATAAATATCTCTCACTTATTTAAA |  | 0.406 | 
29 | CGACATGTCCCGCTTCTTTCATTAATCCGTTAACAACTGTTTTGCTATATACAATTACCTTTTAAGAGGAGGAAT | 0.242 |  | 
30 | CGACATGTCCCGCTTCTTTCATTAATCCTTTAGCAACTGTTTTTCTATATACATTTACCTTTTAAGAGGAGGAAT | 0.478 |  | 
31 | CGACATGTCCCGCTTCTTTCATTAATCCGTTAGCAATTGTTTTGATATATACATTTACCTTTTAAGAGGAGGAAT | 0.65 |  | 
32 | CGACATGTCCCGCTTCTTTCATTAATCCGTTAGCAACAGTTTTGCTATATACAATTACCTTTTAAGAGGAGGAAT | 0.601 |  | 
33 | ACAGACGAAGGAGCCGCAGAGAAGTTATTAAGGGATGAATAATCCGTCAATATAAATATCTCTCACTTATTTAAA |  | 0.294 | 
34 | ACAGACGAAGGAGCCGCAAAAACGTTATTAAGGGATGAATAATCCCTCAATATAAATATCTCTCACTTATTTAAA |  | 1.04 | 
35 | ACAGACGAAGGAGCCGCAAATAAGTTATTAAGGGATAAATAATCCCTCAATATAAATATCTCTCACTTATTTAAA |  | 1.03 | 
36 | CGACATGTCCCGCTTCTTTCATTAATTCGTTGGCAACTGTTTTGCTATATACATTTACCTTTTAAGAGGAGGAAT | 0.687 |  | 
37 | ACAGACGAAGGAGCCGCAAAGAAGTTATTAAGGAATGAATAATCCGTCAATATAAATATCTCTCACTTATTTAAA |  | 0.0653 | cleaved RNA product abundance [3]: 0.0733
38 | ACAGACGAAGGAGCCGCAAAGAAGTTACTAAGGGATGAATTATCCCTCAATATAAATATCTCTCACTTATTTAAA |  | 0.25 | cleaved RNA product abundance [3]: 0.199

Row | Sequence | cleaved RNA product abundance [1] | cleaved RNA product abundance [2] | further results
39 | ACAGACGAAGGAGCCGCAAATAAGTTATGAAGGGATGAATAATCCCTCAATATAAATATCTCTCACTTATTTAAA |  | 0.558 | 
40 | ACAGACGAAGGAGCCGCAAAGAAGTTATTAAGGGATGATTAATCCCTCAATATAAACATCTCTCACTTATTTAAA |  | 0.559 | 
41 | ACAGACGAAGGAGCCGCAAAGACGTTATTAAGGGATGAATCATCCCTCAATATAAATATCTCTCACTTATTTAAA |  | 0.771 | cleaved RNA product abundance [3]: 0.89
42 | ACAGACGAAGGAGCCGCAAAGAAGTTATTAATGGATGACTAATCCCTCAATATAAATATCTCTCACTTATTTAAA |  | 0.114 | cleaved RNA product abundance [3]: 0.0938
43 | ACAGACGAAGGAGCCGCAAAGAAGTTATTAAGGGATGAATAATCCCTCAAAATATATATCTCTCACTTATTTAAA |  | 0.304 | 
44 | CGACATGTCCCGCTTCTTTCATTAATACGTTAGCAACTGATTTGCTATATACATTTACCTTTTAAGAGGAGGAAT | 1.24 |  | 
45 | ACAGACGAAGGAGCCGCAAAGAAGTTATTAAGGGATGACTAATCCGTCAATATAAATATCTCTCACTTATTTAAA |  | 0.213 | 
46 | CGACATGTCCCGCTTCTTTCATTAATCCGTAAGCAACTGTTTCGCTATATACATTTACCTTTTAAGAGGAGGAAT | 0.145 |  | 
47 | ACAGACGAAGGAGCCGCAAAGAAGTTATTAATCGATGAATAATCCCTCAATATAAATATCTCTCACTTATTTAAA |  | 0.164 | 
48 | ACAGACGAAGGAGCCGCAAAGAAATTATTAGGGGATGAATAATCCCTCCATATAAATATCTCTCACTTATTTAAA |  |  | cleaved RNA product abundance [3]: 0.188
49 | ACAGACGAAGGAGCCGCAAAGAAGTTATTAAAGGATGAATTATCCCTCAATATAAATATCTCTCACTTATTTAAA |  | 0.149 | cleaved RNA product abundance [3]: 0.14
50 | CGACATGTCCCGCTTCTTTCATTAATCCGTTAGCAACTGTTTTGCTATATACATTTAACGTTTAAGAGGAGGAAT | 1.13 |  | 
51 | ACAGACGAAGGAGCCGCAAAGAAGTTATTAAGGGATGAATAATCCCTCAATAGAAATACCTCTCACTTATTTAAA |  | 0.0433 | 
52 | ACAGACGAAGGAGCCGCAAAGACGTTATTAAGGGATGAATAATTCCTCAATATAAATATCTCTCACTTATTTAAA |  | 0.944 | 
53 | CGACATGTCCCGCTTCTTTCATTAATCCTTTAGCAACTGTTTCGCTATATACATTTACCTTTTAAGAGGAGGAAT | 0.282 |  | 
54 | CGACATGTCCCGCTTCTTTCATTAATCCGTTACCGACTGTTTTGCTATATACATTTACCTTTTAAGAGGAGGAAT | 0.269 |  | 
55 | ACAGACGAAGGAGCCGCAAAGAAGTTATTAAGTGATGAATAATCCCTCAATATAAATACCTCTCACTTATTTAAA |  | 0.105 | 
56 | ACAGACGAAGGAGCCGCAAATAAGTTCTTAAGGGATGAATAATCCCTCAATATAAATATCTCTCACTTATTTAAA |  | 0.258 | cleaved RNA product abundance [3]: 0.148
